Reference: PMC8431786, “In Search of Monocot Phosphodiesterases: Identification of a Calmodulin Stimulated Phosphodiesterase from Brachypodium distachyon” (International Journal of Molecular Sciences, 2021)

Substrate: [H][C@@]12COP(=O)(O)O[C@@]1([H])[C@@H](O)[C@H](n1cnc3c(=O)[nH]c(N)nc31)O2
Experiment: LC-MS/MS of GMP formed, Michaelis-Menten fit
Type: biochemical, Brachypodium distachyon
Conditions: 3 mM Tris-HCl pH 8.0, 37 °C, 25 min, 0.5 mM MgCl2 and MnCl2, 0.1% 2-mercaptoethanol, no calmodulin

B1: BDPDE1 (Brachypodium distachyon) (protein)
chain: MWPASKTQMHMFCLCRLDQPSCLVIGSARSINASTPKELSQNASSREIENRLLRVRRSATTGRSEPLARFNHPIQFQHARPPPAPAHGAHEGKKMAAAAVRRAEELVEREMSGRDASHDAAHALRVRDLALSLAAEQGLSSPDRLLIVELAALLHDIGDYKYTKDNMEDMSIVERFLQDVGLEKGQREEIVSIITGMGFKNEVSGKAAEPTLEFAVVQDADRLDAIGAIGVARCFTYGGSKNSALHDPKVLPRDNLSKEKYMSKEKQTSINHFHEKLFKLKDMMKTEAGKRRAEKRHKFMEDFVAEFYEEWSGRA
notes: GST-BDPDE1 fusion (pGEX-6P-2, N-terminal GST kept), cDNA from leaf and stalk RNA, E. coli BL21(DE3) pLysS, glutathione-Sepharose
Km: 113.3 µM
